# In patent publication US6001823A, “Treatment or prophylaxis of diseases caused by pilus-forming bacteria” (priority 1995, dated 1999):
# Entries after “also recorded” stand apart in the source; their conditions may differ.
# What was measured:
# PapD [1] = biological target: T1, PapD (Escherichia coli, UniProt P15319); experiment: ELISA: peptide inhibition of PapD binding to MBP-G1'-140' fusion protein; set-up: species or system E. coli; settings: PapD preincubated with peptide at 1:25 ratio
# T1 sequence (P15319 22-239): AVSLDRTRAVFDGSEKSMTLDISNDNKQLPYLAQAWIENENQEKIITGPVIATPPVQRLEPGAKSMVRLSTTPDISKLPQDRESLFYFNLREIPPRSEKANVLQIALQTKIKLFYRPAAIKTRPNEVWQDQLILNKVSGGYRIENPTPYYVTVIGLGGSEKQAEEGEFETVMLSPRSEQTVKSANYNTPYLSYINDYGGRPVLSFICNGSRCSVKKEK
# Method: The ability of the peptides to inhibit the binding of PapD to the MBP-G1'-140' fusion protein was then investigated using the following ELISA test:
# Stock solutions of MBP-G1'-140' proteins in PBS were diluted to 0.1 μM with PBS. The wells of microtiter plates were coated with 50 μl of the protein solutions overnight at 4° C. The wells were washed with PBS, and blocked with 200 μl of 3% bovine serum albumin (BSA) in PBS for 2 hours at 25° C. The plates were washed vigorously three times with PBS and incubated with 50 μl of 1-5 μM PapD proteins in 3% BSA-PBS for 45 minutes at 25° C. The PapD was preincubated with each of the peptides at a 1:25 ratio for 30 min before being added to the wells. After three washings with PBS, the wells were incubated with a 1:500 dilution of rabbit anti-PapD antiserum in 3% BSA-PBS for 45 minutes at 25° C. After three washings with PBS, the wells were incubated with a 1:1000 dilution of goat antiserum to rabbit IgG coupled to alkaline phosphatase in 3% BSA-PBS for 45 minutes at 25° C. After three washings with PBS and three washings with developing buffer (10 mM diethanolamine, 0.5 mM MgCl2), 50 μl filtered 1 mg/ml p-nitrophenyl phosphate in developing buffer was added, the reaction was incubated for 1 hour or longer if necessary in the dark at 25° C., and the absorbance at 405 nm was read.
# PapD [2] = biological target: T1, PapD; experiment: Soluble inhibition ELISA: peptide inhibition of PapD binding to G1'-19'WT-coated wells; set-up: made in house; species or system E. coli; settings: peptide in solution
# Method: In addition, the ability of water-soluble peptides to inhibit PapD binding to G1'-19'WT-coated wells in a soluble inhibition ELISA were tested, since peptide conformations may have been affected by binding to the plastic microtiter plates:
# Microtiter wells were coated overnight at 4° C. with 50 μl of 2,5 pmol/50 μl of the G1'-19'WT peptide. The wells were washed with PBS and blocked with 3% bovine serum albumin (BSA). A 25-fold molar excess of each test peptide was pre-incubated with 100 pmoles PapD for 30 min. and the PapD-peptide solution was then added to the coated wells and incubated at 25° C. for 45 min in the presence of 3% BSA/PBS. The subsequent primary antibody, secondary antibody and developing steps are described above. The ability of the peptides to inhibit binding of PapD to the G1'-19'WT peptide was calculated by dividing the amount of PapD binding in the presence of peptide with the amount of PapD binding in the presence of water. 0% inhibition includes values where binding was greater than that of PapD pre-incubated with H2 O.
# The % inhibition represents the percentage of PapD binding in the presence of the peptide compared to in the presence of water and are the average of two experiments performed duplicate: […]
# PapD [3] = biological target: T1, PapD; experiment: Protection of PapD against tryptic cleavage by peptides; type: biochemical, E. coli; set-up: made in house; settings: PapD preincubated with 20-fold molar excess of peptide
# Method: A Lower: The rate of trypsin cleavage of PapD decreased upon preincubation with the G1'-19'WT, G1'-16'WT or K1'-19'WT peptides, but the G2'-21'amide peptide had no effect. 50 μg of purified PapD was preincubated for 15 min at 25° C. with a 20-fold molar excess of G1'-19'WT, G1'-16'WT, K1'-19'WT or G2'-21'amide peptides (any trypsin cleavage sites in these peptides occur at their amino termini where they were predicted not to interfere with PapD), or an equivalent volume of water. Each sample was then incubated at 37° C. with 3.2 μg of trypsin. Aliquots were removed after 0, 5, 10, 20, 30 and 40 min and boiled in SDS-PAGE sample buffer to stop the digestion. The samples were applied to 15% SDS-PAGE gels and the amount of full-length PapD remaining was determined by densitometry of Coomassie blue stained bands corresponding to full-length PapD which are shown.
# 400 μg of PapD was partially digested by incubation with either 4,5 μg trypsin or 0.45 μg chymotrypsin on PBS for 20 min. at 37° C. The PapD digests were applied to a C-18 HPLC column (Beckman) and 2 major fragments were eluted with a 0-100% acetonitrile gradient in 0.01% trifluoroacetic acid. The PapD fragments were identified by their molecular weight on SDS-PAGE and amino-terminal sequencing. The N-terminal amino acid sequences of the approximately 14 kDa tryptic and chymotryptic fragments were identified as residues 100-108 and 104-109 of PapD, respectively, corresponding to cleavage after Lys-99 (for trypsin) and Leu-103 (for chymotrypsin). The N-terminal sequences of the 11 and 12 kDa bands in the digests were identical to the N-terminal sequence of PapD.
substance,measurement,setting,value
NH2--KPGELSGSMTMVLSFP--COOH (H-KPGELSGSMTMVLSFP-OH) [G1'-16'WT],inhibition of binding of PapD to MBP-G1'-140' fusion protein,PapD [1],significantly more potent
same,inhibition of PapD binding to immobilized G1'-19'WT by soluble peptide,PapD [2],inhibited binding
same,rate of tryptic cleavage of PapD,PapD [3],decreased; also recorded: reduced the rate of tryptic cleavage
